Reference: US20120270784A1 (THERATECHNOLOGIES, published 2012)
Where no end group is shown, it is not given here.

T1: human GRF receptor (human, UniProt Q02643 23-423)
T1 sequence (looked up): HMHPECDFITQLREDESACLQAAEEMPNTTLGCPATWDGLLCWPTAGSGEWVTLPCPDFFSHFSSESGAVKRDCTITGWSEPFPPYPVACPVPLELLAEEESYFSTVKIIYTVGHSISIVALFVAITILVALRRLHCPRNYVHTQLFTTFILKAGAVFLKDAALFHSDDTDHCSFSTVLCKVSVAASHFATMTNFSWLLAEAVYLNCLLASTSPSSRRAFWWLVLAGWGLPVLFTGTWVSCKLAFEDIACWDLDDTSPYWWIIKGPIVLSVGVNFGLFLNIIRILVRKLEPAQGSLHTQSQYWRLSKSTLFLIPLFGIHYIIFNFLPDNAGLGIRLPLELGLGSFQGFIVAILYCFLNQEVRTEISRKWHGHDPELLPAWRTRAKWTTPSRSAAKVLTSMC

B1: Trans-3-hexenoyl-YADAIFTDSYRKVLAQLKARQDILARAAR-NH2 (SEQ ID NO: 26) (peptide)
peptide: YADAIFTDSYRKVLAQLKARQDILARAAR
HELM: PEPTIDE1{[CC/C=C/CC(=O)[*:2]].Y.A.D.A.I.F.T.D.S.Y.R.K.V.L.A.Q.L.K.A.R.Q.D.I.L.A.R.A.A.R.[am]}$$$$V2.0
SMILES: CC/C=C/CC(=O)N[C@@H](Cc1ccc(O)cc1)C(=O)N[C@@H](C)C(=O)N[C@@H](CC(=O)O)C(=O)N[C@@H](C)C(=O)N[C@H](C(=O)N[C@@H](Cc1ccccc1)C(=O)N[C@H](C(=O)N[C@@H](CC(=O)O)C(=O)N[C@@H](CO)C(=O)N[C@@H](Cc1ccc(O)cc1)C(=O)N[C@@H](CCCNC(=N)N)C(=O)N[C@@H](CCCCN)C(=O)N[C@H](C(=O)N[C@@H](CC(C)C)C(=O)N[C@@H](C)C(=O)N[C@@H](CCC(N)=O)C(=O)N[C@@H](CC(C)C)C(=O)N[C@@H](CCCCN)C(=O)N[C@@H](C)C(=O)N[C@@H](CCCNC(=N)N)C(=O)N[C@@H](CCC(N)=O)C(=O)N[C@@H](CC(=O)O)C(=O)N[C@H](C(=O)N[C@@H](CC(C)C)C(=O)N[C@@H](C)C(=O)N[C@@H](CCCNC(=N)N)C(=O)N[C@@H](C)C(=O)N[C@@H](C)C(=O)N[C@@H](CCCNC(=N)N)C(N)=O)[C@@H](C)CC)C(C)C)[C@@H](C)O)[C@@H](C)CC
B2: Trans-3-hexenoyl-YADAIFTDSYRKVLAQLSARQDILARAARAAR-NH2 (SEQ ID NO: 27) (peptide)
peptide: YADAIFTDSYRKVLAQLSARQDILARAARAAR
HELM: PEPTIDE1{[CC/C=C/CC(=O)[*:2]].Y.A.D.A.I.F.T.D.S.Y.R.K.V.L.A.Q.L.S.A.R.Q.D.I.L.A.R.A.A.R.A.A.R.[am]}$$$$V2.0
SMILES: CC/C=C/CC(=O)N[C@@H](Cc1ccc(O)cc1)C(=O)N[C@@H](C)C(=O)N[C@@H](CC(=O)O)C(=O)N[C@@H](C)C(=O)N[C@H](C(=O)N[C@@H](Cc1ccccc1)C(=O)N[C@H](C(=O)N[C@@H](CC(=O)O)C(=O)N[C@@H](CO)C(=O)N[C@@H](Cc1ccc(O)cc1)C(=O)N[C@@H](CCCNC(=N)N)C(=O)N[C@@H](CCCCN)C(=O)N[C@H](C(=O)N[C@@H](CC(C)C)C(=O)N[C@@H](C)C(=O)N[C@@H](CCC(N)=O)C(=O)N[C@@H](CC(C)C)C(=O)N[C@@H](CO)C(=O)N[C@@H](C)C(=O)N[C@@H](CCCNC(=N)N)C(=O)N[C@@H](CCC(N)=O)C(=O)N[C@@H](CC(=O)O)C(=O)N[C@H](C(=O)N[C@@H](CC(C)C)C(=O)N[C@@H](C)C(=O)N[C@@H](CCCNC(=N)N)C(=O)N[C@@H](C)C(=O)N[C@@H](C)C(=O)N[C@@H](CCCNC(=N)N)C(=O)N[C@@H](C)C(=O)N[C@@H](C)C(=O)N[C@@H](CCCNC(=N)N)C(N)=O)[C@@H](C)CC)C(C)C)[C@@H](C)O)[C@@H](C)CC
B3: Y-a-DAIFTDSYRKVLAQLKARQDILARAARAAR-NH2 (SEQ ID NO: 28) (peptide)
peptide: YXDAIFTDSYRKVLAQLKARQDILARAARAAR
HELM: PEPTIDE1{Y.[dA].D.A.I.F.T.D.S.Y.R.K.V.L.A.Q.L.K.A.R.Q.D.I.L.A.R.A.A.R.A.A.R.[am]}$$$$V2.0; N-terminus assumed
SMILES: CC[C@H](C)[C@H](NC(=O)[C@H](C)NC(=O)[C@H](CC(=O)O)NC(=O)[C@@H](C)NC(=O)[C@@H](N)Cc1ccc(O)cc1)C(=O)N[C@@H](Cc1ccccc1)C(=O)N[C@H](C(=O)N[C@@H](CC(=O)O)C(=O)N[C@@H](CO)C(=O)N[C@@H](Cc1ccc(O)cc1)C(=O)N[C@@H](CCCNC(=N)N)C(=O)N[C@@H](CCCCN)C(=O)N[C@H](C(=O)N[C@@H](CC(C)C)C(=O)N[C@@H](C)C(=O)N[C@@H](CCC(N)=O)C(=O)N[C@@H](CC(C)C)C(=O)N[C@@H](CCCCN)C(=O)N[C@@H](C)C(=O)N[C@@H](CCCNC(=N)N)C(=O)N[C@@H](CCC(N)=O)C(=O)N[C@@H](CC(=O)O)C(=O)N[C@H](C(=O)N[C@@H](CC(C)C)C(=O)N[C@@H](C)C(=O)N[C@@H](CCCNC(=N)N)C(=O)N[C@@H](C)C(=O)N[C@@H](C)C(=O)N[C@@H](CCCNC(=N)N)C(=O)N[C@@H](C)C(=O)N[C@@H](C)C(=O)N[C@@H](CCCNC(=N)N)C(N)=O)[C@@H](C)CC)C(C)C)[C@@H](C)O
B4: Y-a-DAIFTDSYRKVLAQLKLRQDILARAARAAR-NH2 (SEQ ID NO: 29) (peptide)
peptide: YXDAIFTDSYRKVLAQLKLRQDILARAARAAR
HELM: PEPTIDE1{Y.[dA].D.A.I.F.T.D.S.Y.R.K.V.L.A.Q.L.K.L.R.Q.D.I.L.A.R.A.A.R.A.A.R.[am]}$$$$V2.0; N-terminus assumed
SMILES: CC[C@H](C)[C@H](NC(=O)[C@H](C)NC(=O)[C@H](CC(=O)O)NC(=O)[C@@H](C)NC(=O)[C@@H](N)Cc1ccc(O)cc1)C(=O)N[C@@H](Cc1ccccc1)C(=O)N[C@H](C(=O)N[C@@H](CC(=O)O)C(=O)N[C@@H](CO)C(=O)N[C@@H](Cc1ccc(O)cc1)C(=O)N[C@@H](CCCNC(=N)N)C(=O)N[C@@H](CCCCN)C(=O)N[C@H](C(=O)N[C@@H](CC(C)C)C(=O)N[C@@H](C)C(=O)N[C@@H](CCC(N)=O)C(=O)N[C@@H](CC(C)C)C(=O)N[C@@H](CCCCN)C(=O)N[C@@H](CC(C)C)C(=O)N[C@@H](CCCNC(=N)N)C(=O)N[C@@H](CCC(N)=O)C(=O)N[C@@H](CC(=O)O)C(=O)N[C@H](C(=O)N[C@@H](CC(C)C)C(=O)N[C@@H](C)C(=O)N[C@@H](CCCNC(=N)N)C(=O)N[C@@H](C)C(=O)N[C@@H](C)C(=O)N[C@@H](CCCNC(=N)N)C(=O)N[C@@H](C)C(=O)N[C@@H](C)C(=O)N[C@@H](CCCNC(=N)N)C(N)=O)[C@@H](C)CC)C(C)C)[C@@H](C)O
B5: Y-a-DAIFTDSYRKVLAQLKARQDLLARAARAAR-NH2 (SEQ ID NO: 30) (peptide)
peptide: YXDAIFTDSYRKVLAQLKARQDLLARAARAAR
HELM: PEPTIDE1{Y.[dA].D.A.I.F.T.D.S.Y.R.K.V.L.A.Q.L.K.A.R.Q.D.L.L.A.R.A.A.R.A.A.R.[am]}$$$$V2.0; N-terminus assumed
SMILES: CC[C@H](C)[C@H](NC(=O)[C@H](C)NC(=O)[C@H](CC(=O)O)NC(=O)[C@@H](C)NC(=O)[C@@H](N)Cc1ccc(O)cc1)C(=O)N[C@@H](Cc1ccccc1)C(=O)N[C@H](C(=O)N[C@@H](CC(=O)O)C(=O)N[C@@H](CO)C(=O)N[C@@H](Cc1ccc(O)cc1)C(=O)N[C@@H](CCCNC(=N)N)C(=O)N[C@@H](CCCCN)C(=O)N[C@H](C(=O)N[C@@H](CC(C)C)C(=O)N[C@@H](C)C(=O)N[C@@H](CCC(N)=O)C(=O)N[C@@H](CC(C)C)C(=O)N[C@@H](CCCCN)C(=O)N[C@@H](C)C(=O)N[C@@H](CCCNC(=N)N)C(=O)N[C@@H](CCC(N)=O)C(=O)N[C@@H](CC(=O)O)C(=O)N[C@@H](CC(C)C)C(=O)N[C@@H](CC(C)C)C(=O)N[C@@H](C)C(=O)N[C@@H](CCCNC(=N)N)C(=O)N[C@@H](C)C(=O)N[C@@H](C)C(=O)N[C@@H](CCCNC(=N)N)C(=O)N[C@@H](C)C(=O)N[C@@H](C)C(=O)N[C@@H](CCCNC(=N)N)C(N)=O)C(C)C)[C@@H](C)O
B6: Trans-3-hexenoyl-YADAIFTDSYRKVLAQLKARQDILARAARAAR-NH2 (SEQ ID NO: 31) (peptide)
peptide: YADAIFTDSYRKVLAQLKARQDILARAARAAR
HELM: PEPTIDE1{[CC/C=C/CC(=O)[*:2]].Y.A.D.A.I.F.T.D.S.Y.R.K.V.L.A.Q.L.K.A.R.Q.D.I.L.A.R.A.A.R.A.A.R.[am]}$$$$V2.0
SMILES: CC/C=C/CC(=O)N[C@@H](Cc1ccc(O)cc1)C(=O)N[C@@H](C)C(=O)N[C@@H](CC(=O)O)C(=O)N[C@@H](C)C(=O)N[C@H](C(=O)N[C@@H](Cc1ccccc1)C(=O)N[C@H](C(=O)N[C@@H](CC(=O)O)C(=O)N[C@@H](CO)C(=O)N[C@@H](Cc1ccc(O)cc1)C(=O)N[C@@H](CCCNC(=N)N)C(=O)N[C@@H](CCCCN)C(=O)N[C@H](C(=O)N[C@@H](CC(C)C)C(=O)N[C@@H](C)C(=O)N[C@@H](CCC(N)=O)C(=O)N[C@@H](CC(C)C)C(=O)N[C@@H](CCCCN)C(=O)N[C@@H](C)C(=O)N[C@@H](CCCNC(=N)N)C(=O)N[C@@H](CCC(N)=O)C(=O)N[C@@H](CC(=O)O)C(=O)N[C@H](C(=O)N[C@@H](CC(C)C)C(=O)N[C@@H](C)C(=O)N[C@@H](CCCNC(=N)N)C(=O)N[C@@H](C)C(=O)N[C@@H](C)C(=O)N[C@@H](CCCNC(=N)N)C(=O)N[C@@H](C)C(=O)N[C@@H](C)C(=O)N[C@@H](CCCNC(=N)N)C(N)=O)[C@@H](C)CC)C(C)C)[C@@H](C)O)[C@@H](C)CC
B7: Trans-3-hexenoyl-YADAIFTDSYRKVLAQLKARQDLLARAARAAR-NH2 (SEQ ID NO: 32) (peptide)
peptide: YADAIFTDSYRKVLAQLKARQDLLARAARAAR
HELM: PEPTIDE1{[CC/C=C/CC(=O)[*:2]].Y.A.D.A.I.F.T.D.S.Y.R.K.V.L.A.Q.L.K.A.R.Q.D.L.L.A.R.A.A.R.A.A.R.[am]}$$$$V2.0
SMILES: CC/C=C/CC(=O)N[C@@H](Cc1ccc(O)cc1)C(=O)N[C@@H](C)C(=O)N[C@@H](CC(=O)O)C(=O)N[C@@H](C)C(=O)N[C@H](C(=O)N[C@@H](Cc1ccccc1)C(=O)N[C@H](C(=O)N[C@@H](CC(=O)O)C(=O)N[C@@H](CO)C(=O)N[C@@H](Cc1ccc(O)cc1)C(=O)N[C@@H](CCCNC(=N)N)C(=O)N[C@@H](CCCCN)C(=O)N[C@H](C(=O)N[C@@H](CC(C)C)C(=O)N[C@@H](C)C(=O)N[C@@H](CCC(N)=O)C(=O)N[C@@H](CC(C)C)C(=O)N[C@@H](CCCCN)C(=O)N[C@@H](C)C(=O)N[C@@H](CCCNC(=N)N)C(=O)N[C@@H](CCC(N)=O)C(=O)N[C@@H](CC(=O)O)C(=O)N[C@@H](CC(C)C)C(=O)N[C@@H](CC(C)C)C(=O)N[C@@H](C)C(=O)N[C@@H](CCCNC(=N)N)C(=O)N[C@@H](C)C(=O)N[C@@H](C)C(=O)N[C@@H](CCCNC(=N)N)C(=O)N[C@@H](C)C(=O)N[C@@H](C)C(=O)N[C@@H](CCCNC(=N)N)C(N)=O)C(C)C)[C@@H](C)O)[C@@H](C)CC

What follows are binders tested against T1, human GRF receptor (assay: cell-based or functional assay).

Q: For Ac-YADAIFTDSYRKVLAQLSARKLLQDILSR-NH2 [Ac-YADAIFTDSYRKVLAQLSARKLLQDILSR-NH2 (SEQ ID NO: 43)], which “EC50 as assessed by alkaline phosphatase (AP) induction” value (from here on “EC50 as assessed”) is on record?
A: The value was 0.25 nM.

Q: How did the “EC50 as assessed” value turn out when B1 was run?
A: The value was 0.13 nM.

Q: B2 was tested. Which “EC50 as assessed” value did it give?
A: Its value is 0.19 nM.

Q: Which “EC50 as assessed” value does the source give for B3 here?
A: The value was 0.11 nM.

Q: Which “EC50 as assessed” value does the source give for B4 here?
A: The value was 0.08 nM.

Q: For B5, which “EC50 as assessed” value is on record?
A: Its value is 0.18 nM.

Q: Which “EC50 as assessed” value does the source give for B6 here?
A: Its value is 0.1 nM.

Q: How did the “EC50 as assessed” value turn out when B7 was run?
A: The value was 0.11 nM.

Q: For YSDAIFTDSYRKVLAQLKARQDILARAARAAR-NH2 [YSDAIFTDSYRKVLAQLKARQDILARAARAAR-NH2 (SEQ ID NO: 33)], which “EC50 as assessed” value is on record?
A: The value was 0.25 nM.
